Where two headings read alike, the source gives them in different places.

Experiment [1] concerns the target T1, EDIII-DV3 (E protein domain III of dengue virus serotype DV-3) (dengue virus serotype DV-3, UniProt P27915 571-678).
T1 construct: also called DENV-3; EDIII of DV-3

Experiment [2] concerns the target T2, ED3-DV4/H241/Phil56 (EDIII of DENV-4 strain H241) (dengue virus serotype DENV-4, strain …, UniProt Q58HT7 572-679).
For experiment [3], the target named is T3, Singapore/2009 (serotype III EDIII).
T3 construct: also called ED3-DV3/Sing09; DENV-3 Sing
T3 E protein domain III (EDIII): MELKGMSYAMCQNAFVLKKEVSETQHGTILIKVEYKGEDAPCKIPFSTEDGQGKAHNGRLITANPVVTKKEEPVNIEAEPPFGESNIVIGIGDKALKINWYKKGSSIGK

The target of experiment [4] is T4, Cambodia/2008 (serotype III EDIII).
T4 construct: Genotype II; also called ED3-DV3/Cambodia08
T4 E protein domain III (EDIII): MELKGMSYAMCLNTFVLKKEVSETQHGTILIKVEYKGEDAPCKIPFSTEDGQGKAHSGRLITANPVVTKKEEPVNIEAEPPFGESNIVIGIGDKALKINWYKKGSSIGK
Put plainly: ELISA; row Cambodia/2008, serotype III, genotype II. For orientation: ELISA stands for enzyme-linked immunosorbent assay.

Experiment [5] deals with T2, ED3-DV4/H241/Phil56 (EDIII of DENV-4 …). In words: ELISA; row Philippines/1956 (H241)*, serotype IV, genotype I.
The target of experiment [6] is T5, Vietnam/2008 (serotype I EDIII).
T5 construct: also called ED3-DV1/Viet08
T5 E protein domain III (EDIII): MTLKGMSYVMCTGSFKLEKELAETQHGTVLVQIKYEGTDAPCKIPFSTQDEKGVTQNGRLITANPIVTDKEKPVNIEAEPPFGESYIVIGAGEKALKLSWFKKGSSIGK

Experiment [7] addresses T6, EDIII-DV1 (E protein domain III of dengue virus serotype DV-1) (dengue virus serotype DV-1, UniProt P17763 573-680).
T6 construct: also called DENV-1; EDIII of DV-1
T6 chain: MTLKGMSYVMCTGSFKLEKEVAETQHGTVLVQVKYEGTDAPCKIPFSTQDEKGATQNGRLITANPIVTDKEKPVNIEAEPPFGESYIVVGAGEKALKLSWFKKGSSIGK

Experiment [8] deals with T7, Hawaii/1944* (serotype I EDIII) (Dengue virus 1).
T7 construct: isolated EDIII protein; also called EDIII of DENV-1 Hawaii/1944
In words: ELISA; row Hawaii/1944*, serotype I, genotype I.

Experiment [9] concerns the target T8, Vietnam/2007 (serotype II EDIII).
T8 construct: Genotype Asian II; also called ED3-DV2/Viet07
T8 E protein domain III (EDIII): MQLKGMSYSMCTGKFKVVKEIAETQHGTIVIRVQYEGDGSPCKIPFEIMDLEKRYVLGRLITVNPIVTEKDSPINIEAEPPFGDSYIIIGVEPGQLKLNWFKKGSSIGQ
Put plainly: SPR; row Vietnam/2007, serotype II, genotype Asian II. (In general: Surface plasmon resonance follows binding to a sensor surface in real time, without labels.)

For experiment [10], the target named is T9, Mexico/1977 (BC287/97)* (serotype IV EDIII) (Dengue virus 4).
T9 construct: isolated EDIII protein; also called EDIII of DENV-4 Mexico/1997 (BC287/97); DENV-4 BC2
Put plainly: ELISA; row Mexico/1977 (BC287/97)*, serotype IV, genotype IIa.

Experiment [11] deals with T10, Venezuela/2008 (serotype IV EDIII).
T10 E protein domain III (EDIII): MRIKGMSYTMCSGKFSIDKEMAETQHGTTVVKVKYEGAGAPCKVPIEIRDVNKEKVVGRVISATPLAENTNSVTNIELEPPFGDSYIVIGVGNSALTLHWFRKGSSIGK
In words: SPR; row Venezuela/2008, serotype IV, genotype IIa.

Experiment [12] deals with T11, Nicaragua/2010 (serotype III EDIII).
T11 construct: also called ED3-DV3/Nicaragua10; DENV-3 Nic
T11 E protein domain III (EDIII): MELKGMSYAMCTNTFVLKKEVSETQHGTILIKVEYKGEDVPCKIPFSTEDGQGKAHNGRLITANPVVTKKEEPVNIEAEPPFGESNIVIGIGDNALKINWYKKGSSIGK

Experiment [13] addresses T5, Vietnam/2008 (serotype I EDIII).
Experiment [14] deals with T7, Hawaii/1944* (serotype I EDIII). In words: SPR; row Hawaii/1944*, serotype I, genotype I.
The target in experiment [15] is T12, New Guinea/1944 (NGC)* (serotype II EDIII) (Dengue virus 2).
T12 construct: isolated EDIII protein; also called EDIII of DENV-2 NGC
In words: Kd table, method not stated; Ag DENV-2 NGC.

Experiment [16] addresses T13, Philippines/1956 (H87)* (serotype III EDIII) (Dengue virus 3).
T13 construct: isolated EDIII protein
Put plainly: ELISA; row Philippines/1956 (H87)*, serotype III, genotype I.

For experiment [17], the target named is T14, Brazil/2011 (serotype IV EDIII).
T14 E protein domain III (EDIII): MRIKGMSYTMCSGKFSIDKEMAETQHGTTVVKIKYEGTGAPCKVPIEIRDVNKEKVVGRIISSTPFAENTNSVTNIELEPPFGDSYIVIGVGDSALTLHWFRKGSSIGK
In words: ELISA; row Brazil/2011, serotype IV, genotype I.

Experiment [18] concerns the target T11, Nicaragua/2010 (serotype III EDIII).

B1: antibody D88 (antibody, V domains shown)
VH: QVQLVQSGAEVKKPGASVKVSCKAGFNIKDVYMSWVRQAPEQGLEWMGRIDPENGDTKYDPKLQGRVTMTADTSTNTAYMELRSLRSDDTAVYYCARGWEGFAYWGQGTLVTVSS
VL: DIVMTQSPASLAVSLGERATISCRASENVDKYGNSFMHWYQQKPGQPPKLLIYRASELQWGVPDRFSGSGSGTDFTLTISSLQAEDVAVYYCQRSNEVPWTFGQGTKLEIK
notes: also called mAb D88
For orientation: Kd means the constant that tells how readily two partners part at equilibrium. Higher therefore signals a looser complex. Take B1: the Kd in experiment [1] came to 1 nM; in experiment [2], 100 nM; in experiment [3] it was 0.33 nM; in [4] it was 1.32 nM; in experiment [5] it was 113 nM; in experiment [6], 0.031 nM. In addition, the Kd in [7] is 0.041 nM; in [8], less than 0.1 nM; in [9], 0.014 nM; in experiment [10], 4.32 nM; in experiment [11] it was 3.03 nM; in experiment [12] it was 3.36 nM. The Kd in [13] is less than 0.1 nM; in experiment [14] it was 0.041 nM; in experiment [15], less than 0.1 nM; in experiment [16] it was 1.24 nM; in experiment [17] it was 14.7 nM; in experiment [18], 3.3 nM.

For the origin of these results see patent publication US20240425569A1 (VISTERRA, published 2024).
